Data from the supplement of paper PMC9170038.

Tested on: MS2 coat protein
Assay: apparent KD of MS2 coat protein; designed switch direction (-1 OFF switch, 1 ON switch): -1; higher = weaker reporter binding
Outline: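 Each step of the titration lasted 0.8–1.5 h at the lowest concentration and 10–20 min at the highest. The protein, SNAP-549-labelled MS2 coat protein, went from 0.7 or 1.5 nM doubling to 3 µM over RNA switches transcribed on Illumina chips by stalled E. coli RNA polymerase. Normalised cluster fluorescence was curve-fitted, and the per-design median over clusters is given as apparent KD.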

[1] = Eterna round: R95, input ligand: FMN 200 uM
[2] = Eterna round: R95, input ligand: microRNA oligo, concentration not stated
[3] = Eterna round: R95, input ligand: none
[4] = input ligand: microRNA oligo, concentration not stated

| Sequence | apparent KD of MS2 coat protein [1] | apparent KD of MS2 coat protein [2] | apparent KD of MS2 coat protein [3] | apparent KD of MS2 coat protein (input ligand: FMN 200 uM) | apparent KD of MS2 coat protein (input ligand: none) | apparent KD of MS2 coat protein [4] |
| --- | --- | --- | --- | --- | --- | --- |
| CUGAGGUAGCGGUCCUAUGACAUGAGGAUCACCCAUGUACCUUGCUACAAGCUUUUUGCUCGUCUUAUGAUUCUCGG [JL Atriat mod 8] (puzzle: Sensor v3, turn-off variant 1) | 58.1 nM | 123 nM | 70.2 nM |  |  |  |
| CUGAUGUCAGGAUAUCGGUGGCUCACUUGUGUGUGCCAGUUCGAGAAGGGACAUGAGGAUCACCCAUGUUUUUA [Exclusion 4 (Mod2 of #36 by Marzena11)] (Eterna round: R97, puzzle: Exclusion 4) |  |  |  | 486 nM | 75.2 nM |  |
| CUGAUGUGAGGAUAUGUGAUCUGCCUUCUAUAUAGAUGAUUACAGAAGGCACAUGAGGAUCACCCAUGUAGAUC [Ex4 - 3 - 25] (puzzle: Exclusion 4) |  | 51.8 nM |  |  |  |  |
| CUGAUGUUAGGAUAUCAGGCGCCCGCCACUAGCAGGGCGCAUGAGAAGGGACAUGAGGAUCACCCAUGUAGUAA [Anbionxe] (puzzle: Exclusion 4) |  | 27.3 nM |  |  |  |  |
| CUGAUUCUAGUAAGGAUAUCGGCGUGCACAGCAGCCGAGAAGGUACAUGAGGAUCACCCAUGUUGCUUCAACUU [Eternabot (Original) Solution 43] (Eterna round: R97, puzzle: Brourd's mod of Exclusion 4) |  |  |  | 69.5 nM | 31.2 nM |  |
| CUGCUCCGUGUAGGAUAUCGCCGCACCACCCGGCGAGAAGGACAUGAGGAUCACCCAUGUAUGUUAUUAUCACGUGUGGCGCGC [Design 40] (Eterna round: R96, puzzle: Exclusion NG 1) |  |  |  | 17.6 nM | 15 nM | 11.7 nM |
| CUGCUCCGUGUAGGAUAUGCAUACCACCACUAUGCAGAAGGACAUGAGGAUCACCCAUGUAUGUUAUUAUCACGUGAAGCGUCC [Design 19] (Eterna round: R96, puzzle: Exclusion NG 1) |  |  |  | 27.8 nM | 23.7 nM | 18.1 nM |
| CUGCUCCGUGUAGGAUAUGCAUACUCCCACUAUGCAGAAGGACAUGAGGAUCACCCAUGUAUGUUAUUAUCACGUGUAGCGUCC [Design 17] (Eterna round: R96, puzzle: Exclusion NG 1) |  |  |  | 21.1 nM | 21.4 nM | 14.2 nM |
| CUGCUGGAGCUUUGCUUUGGUCGUACAUGAGGAUCACCCAUGUAGGAUAUGGUAAAAUUUGCUUGCUAGAAGGAUAGAGUGGUC [salish99_ExNG3_r04_612] (Eterna round: R96, puzzle: Exclusion NG 3) |  |  |  | 88.1 nM | 42.4 nM | 34.3 nM |
| CUGCUUUUGGUGAGGAUAUGCGGUAGCUGGGUACCGCAGAAGGCACAUGAGGAUCACCCAUGUGAUCUGAAAGC [Eternabot (L1) Solution 5] (Eterna round: R97, puzzle: Brourd's mod of Exclusion 4) |  |  |  | 687 nM | 61.2 nM |  |
| CUGGUCCGAGGAUAUAUGAUGUGAAACAUGAGGAUCACCCAUGUAAUAUUAUGGAAGAAAAUAGAAGGCGGACUAG [Mat - Exclusion 5 - JL mod - D38] (puzzle: Exclusion 5) | 37.2 nM | 64.3 nM | 71.5 nM |  |  |  |
| CUGGUCCGAGGAUAUAUUAAGUGAUACAUGAGGAUCACCCAUGUAAUUUAAUGGAAGUAAAUAGAAGGCGGACUAG [Mat - Exclusion 5 - JL mod - D50] (puzzle: Exclusion 5) | 79.8 nM | 53 nM | 80.5 nM |  |  |  |
| CUGGUCCGAGGAUAUAUUAUGUGAAACAUGAGGAUCACCCAUGUAAUAUGAUGGAUGUAAAUAGAAGGCGGGCUAG [Mat - Exclusion 5 - JL mod - D26] (puzzle: Exclusion 5) | 30.8 nM | 23.2 nM | 24.3 nM |  |  |  |
| CUGUAACGAGCGUGAGCCGACAUGAGGAUCACCCAUGUGCUCGUCUUAUAACGUACUGUCACGUUAGUGAUAGUGCG [Sensor v3, turn-off variant 1 (MOD of Eli's v1-13 v.2)] (puzzle: Sensor v3, turn-off variant 1) | 45.9 nM | 74.7 nM | 37.3 nM |  |  |  |
| CUGUACUGAGGAUAUACAUGAGGAUCACCCAUGUGAUUUGGUGCACGCGUACGUGUACGUAGAAGGCAGUACAG [Mat - Exclusion 3 - Eli Mod - D39] (Eterna round: R97, puzzle: Exclusion 3) |  |  |  | 317 nM | 25.5 nM |  |
| CUUAAUUGUCACAUGGGUGACAUGAGGAUCACCCAUGUCACAAGCUUUUUGUUCGUCUUAUAAUUAACCCAUGUGAC [Stov1/12-B3] (Eterna round: R97, puzzle: Sensor, turn-off variant 1) |  |  |  | 13.8 nM | 13.7 nM |  |
| CUUAAUUGUGACAUGGGUGACAUGAGGAUCACCCAUGUCACAAGCUUUUUGCUCGUCUUAUAAUUAACCCAUGUCAC [Stov1/13-A3] (Eterna round: R97, puzzle: Sensor, turn-off variant 1) |  |  |  | 30 nM | 33.4 nM |  |
| CUUAGUUGGUAAGGAUAUCCUACAUUAUUCUGACCCGUGCAAGCUACAUGAGGAUCACCCAUGUGGGAGAAGGUGCGUUAACGU [Design 7] (Eterna round: R96, puzzle: Exclusion NG 2) |  |  |  | 53.5 nM | 46 nM | 42.1 nM |
| CUUAUGUCAGGAUAUUAGUAGUAAAUAAAUAAAAUUAUUACUGAGAAGGGACAUGAGGAUCACCCAUGUUCCUC [Salish 062 v4] (Eterna round: R97, puzzle: Exclusion 4) |  |  |  | 96 nM | 23.9 nM |  |
| CUUAUGUGAGGAUAUCAGUAGUGAUACGAUAGUAUUACUGCUGAGAAGGCACAUGAGGAUCACCCAUGUUCCUU [Exclusion 4 - Mod Omei Ex4 344 mod v.3] (puzzle: Exclusion 4) |  | 21.9 nM |  |  |  |  |
| CUUCAGUGAGGAUAUGGCAUGCGCUGAUAAGCGCUCUCACGCCAGAAGGCACAUGAGGAUCACCCAUGUAAAAC [Eddionce] (puzzle: Exclusion 4) |  | 41.3 nM |  |  |  |  |
| CUUCAUCCACCAGAGCUCACACUUAUACCUGCUCUGGUGACAUGAGGAUCACCCAUGUUUUUUGCCCGUCUUAUCUU [Sensor v3, turn-off variant 2 (MOD of Leso)] (puzzle: Sensor v3, turn-off variant 2) | 149 nM | 19.8 nM | 207 nM |  |  |  |
